Measured values published in article PMC7969030.

How the values were obtained:
Kuwt [1] = molecular target: T1, Kuwt (Bacillus subtilis, UniProt O34859 1-311); assay: SPR
T1 sequence: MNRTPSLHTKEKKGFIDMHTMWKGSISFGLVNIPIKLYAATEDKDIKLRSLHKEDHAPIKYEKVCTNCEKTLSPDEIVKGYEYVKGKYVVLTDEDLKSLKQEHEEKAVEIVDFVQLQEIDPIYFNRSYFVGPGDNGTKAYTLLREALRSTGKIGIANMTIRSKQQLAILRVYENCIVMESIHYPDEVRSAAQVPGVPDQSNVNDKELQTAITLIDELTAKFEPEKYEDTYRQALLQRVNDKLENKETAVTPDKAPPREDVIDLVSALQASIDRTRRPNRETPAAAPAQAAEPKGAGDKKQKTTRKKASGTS

Kucore [2] = molecular target: T2, Kucore (Bacillus subtilis, UniProt O34859 1-253); assay: SPR
T2 sequence: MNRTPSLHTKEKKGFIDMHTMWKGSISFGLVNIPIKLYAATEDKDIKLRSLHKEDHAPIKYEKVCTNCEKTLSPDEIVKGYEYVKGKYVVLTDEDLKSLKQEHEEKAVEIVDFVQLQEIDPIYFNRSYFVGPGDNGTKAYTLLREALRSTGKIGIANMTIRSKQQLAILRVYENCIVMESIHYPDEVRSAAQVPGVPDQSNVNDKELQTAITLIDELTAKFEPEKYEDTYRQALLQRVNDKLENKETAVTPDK

Kuwt;LigD = molecular target: T3, Kuwt;LigD (Bacillus subtilis;Bacillus subtilis, UniProt O34859;O34398 1-311;1-611, |); assay: EMSA
T3 sequence 1: T1 sequence
T3 sequence 2: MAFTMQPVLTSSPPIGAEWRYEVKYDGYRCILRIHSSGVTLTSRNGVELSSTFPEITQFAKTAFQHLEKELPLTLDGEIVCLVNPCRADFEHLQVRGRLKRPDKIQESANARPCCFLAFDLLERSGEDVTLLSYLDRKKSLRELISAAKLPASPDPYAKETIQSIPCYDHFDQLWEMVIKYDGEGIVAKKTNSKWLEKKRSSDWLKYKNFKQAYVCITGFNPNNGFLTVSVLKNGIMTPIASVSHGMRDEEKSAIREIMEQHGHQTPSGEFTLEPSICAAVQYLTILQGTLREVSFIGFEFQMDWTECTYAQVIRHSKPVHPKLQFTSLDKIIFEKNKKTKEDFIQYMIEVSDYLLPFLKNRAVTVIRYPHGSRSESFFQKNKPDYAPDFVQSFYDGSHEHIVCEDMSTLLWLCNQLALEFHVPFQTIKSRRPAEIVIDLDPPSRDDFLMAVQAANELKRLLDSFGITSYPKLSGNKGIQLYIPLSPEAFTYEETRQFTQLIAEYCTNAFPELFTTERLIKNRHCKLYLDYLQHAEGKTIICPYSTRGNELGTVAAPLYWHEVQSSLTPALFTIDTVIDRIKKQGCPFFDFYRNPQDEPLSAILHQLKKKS

Kuwt [3] = molecular target: T1, Kuwt; assay: EMSA
Kucore [4] = molecular target: T2, Kucore; assay: EMSA

B1: 50 bp blunt DNA (SPR) (dsDNA)
DNA 1: CCTCTAGACCTGTACTACTCGAGAGATCGATCGACAGACGATGACTTAGC
DNA 2: GCTAAGTCATCGTCTGTCGATCGATCTCTCGAGTAGTACAGGTCTAGAGG
modifications: 5' biotin on one strand
B1 gave a Kd (Kuwt [1]) of 6.7 nM and a Kd (Kucore [2]) of 9.3 nM.

B2: 50 bp blunt DNA (EMSA, photobleaching) (dsDNA)
DNA 1: B1 DNA 1
DNA 2: B1 DNA 2
modifications: 5' 6-FAM on one strand (EMSA)
B2: binds (Kuwt;LigD).

B3: 50 bp DNA with 4 nt overhang (dsDNA)
DNA 1: B1 DNA 1
DNA 2: CTGAGCTAAGTCATCGTCTGTCGATCGATCTCTCGAGTAGTACAGGTCTAGAGG
modifications: 5' 6-FAM on one strand
B3: binds (Kuwt [3]); binds (Kucore [4]).
